Measurements published in patent US20030119716A1, “Methods for screening, treating and diagnosing G-protein coupled receptor-related disorders and compositions thereof” (Wyeth, priority 2001, published 2003).

B1: RGSz1: human RGSz1 expressed from pCR3.1; highly selective for Gαz (protein)
chain: MPQLSQDNQECLQKHFSRPSIWTQFLPLFRAQRYNTDIHQITENEGDLRAVPDIKSFPPAQLPDSPAAPKLFGLLSSPLSSLARFFSHLLRRPPPEAPRRRLDFSPLLPALPAARLSRGHEELPGRLSLLLGAALALPGRPSGGRPLRPPHPVAKPREEDATAGQSSPMPQMGSERMEMRKRQMPAAQDTPGAAPGQPGAGSRGSNACCFCWCCCCSCSCLTVRNQEDQRPTIASHELRADLPTWEESPAPTLEEVNAWAQSFDKLMVTPAGRNAFREFLRTEFSEENMLFWMACEELKKEANKNIIEEKARIIYEDYISILSPKEVSLDSRVREVINRNMVEPSQHIFDDAQLQIYTLMHRDSYPRFMNSAVYKDLLQSLSEKSIEA
B2: RGS2: human RGS2 expressed from pCR3.1; selective GAP for Gαq (protein)
chain: MQSAMFLAVQHDCRPMDKSAGSGHKSEEKREKMKRTLLKDWKTRLSYFLQNSSTPGKPKTGKKSKQQAFIKPSPEEAQLWSEAFDELLASKYGLAAFRAFLKSEFCEENIEFWLACEDFKKTKSPQKLSSKARKIYTDFIEKEAPKEINIDFQTKTLIAQNIQEATSGCFTTAQKRVYSLMENNSYPRFLESEFYQDLCKKPQITTEPHAT
B3: RGS4: human RGS4 expressed from pCR3.1; potent GAP for both Gαq and Gαi (protein)
chain: MCKGLAGLPASCLRSAKDMKHRLGFLLQKSDSCEHNSSHNKKDKVVICQRVSQEEVKKWAESLENLISHECGLAAFKAFLKSEYSEENIDFWISCEEYKKIKSPSKLSPKAKKIYNEFISVQATKEVNLDSCTREETSRNMLEPTITCFDEAQKKIFNLMEKDSYRRFLKSRFYLDLVNPSSCGAEKQKGAKSSADCASLVPQCA

System: c-fos SRE activation in CHO cells stably expressing D2R
Experiment: SRE-luciferase reporter assay, quinpirole-stimulated c-fos SRE activation in CHO-D2R cells
Assay type: cell-based, Chinese hamster
Settings: for effect of RGS transfection on quinpirole dose-response curve of SRE activation: RGS (2 μg) transfected alone, no Gα co-transfection; for reduction in SRE activation: RGS co-expressed with Gαq/i chimera

Row | Molecule | effect of RGS transfection on quinpirole dose-response curve of SRE activation | reduction in SRE activation | reduction in quinpirole-stimulated SRE activation (RGS co-expressed with Gαi1, 100 nM quinpirole) | inhibition (attenuation) of SRE activation (RGS co-transfected with Gαi1, all quinpirole concentrations used (10 nM-100 μM)) | reduction in quinpirole-stimulated SRE activation (RGS transfected without Gαi1 co-transfection, 100 nM quinpirole)
1 | B1 | rightward shift of the dose-response curve | – | – | – | –
2 | B2 | rightward shift of the dose-response curve | approximately 70% | – | – | –
3 | B3 | rightward shift of the dose-response curve | about 60% | approximately 85% | > 80% | approximately 40%
